In series [1] the test system is HCT116 cells. Description: MTT assay of cell viability, HCT116 cells. The class given is cell-based, human. On the procedure: FIGS. 1A, 1B and 1C: confirms that rGRA8 treatment increases HCT116 cell death by mitochondria pathways [(A and B). Various cancer cells were incubated with WT rGRA8 (20 μg/ml) and its mutants for indicated times and then cell viability was measured by MTT analysis (upper) and αATP5A1, αSIRT3 or αActin immunoblotting (lower) was performed. […] The cells were incubated with WT rGRA8 for indicated times and subjected to IP with αLys-AC or αHis and IB with αATP5A1, αATP5C1, αSIRT3, αPGC-1, αPKCα or αActin. Data represents five independent experiments with similar results. Significant differences were determined by comparison with rVector treatment (** P<0.01; *** P<0.001)].
(§1) FIGS. 4A, 4B, 4C, 4D and 4E show HCT116 cell death by rATRAM-GRA8-M/AS-induced mitochondrial activation [(A and B) HCT116 cells were incubated with WT rGRA8 or rATRAM-GRA8-M/AS and its mutants for indicated times, and then cell viability was measured with an MTT assay. […] The cells were stimulated with rATRAM-GRA8-M/AS for 1 day and subjected to enzymatic activity of OXPHOS V, and (C) MitoTracker fluorescence signals were assessed by flow cytometry. (D) A bar graph indicates a mitochondrial mass (MFI), and (E) the mtDNA content of BMDM was measured by quantitative real-time PCR. The mtDNA content was normalized by nuclear DNA. Significant differences were determined by comparison with control treatment (** P<0.01; *** P<0.001). Data represents five independent experiments with similar results].
As described in Non-Patent Document 1, the cell viability for a non-treated group was measured by an MTT assay. After incubation for an indicated time, 5 mg/ml of a 3-(4,5-dimethyl thiazol-2-yl)-2,5-diphenyltetrazoliumbromide (MTT) solution was added to a medium, and the cells were further incubated for 4 hours. Subsequently, all of the medium was removed, the same volume of a dimethyl sulfoxide (DMSO) solution was added for 15 minutes to dissolve formazan. Using a UV/VIS spectrophotometer, each well of a plate was measured at 540 nm to measure relative cell viability.

In series [2] the test system is HCT116 cells. Description: Mitochondrial DNA quantification by real-time PCR. The class given is cell-based, human. The conditions noted are these: 1 day, via SIRT3 and PKCα. How it is done:
as §1
To quantify the copy number of mitochondrial DNA (mtDNA), by the method described in Autophagy. 2014; 10:785-802: The AMPK-PPARGC1A pathway is required for antimicrobial host defense through activation of autophagy, an mtDNA to nuclear DNA (nDNA) ratio was measured. Pyruvate kinase (Pklr) was used as a marker for nDNA and NADH dehydrogenase subunit 1 (mt-Nd1) was used as a marker for mtDNA. A real-time PCR reaction was performed according to the manufacturer's instructions (QuantiFast SYBR green PCR master mix; Qiagen, 204052), and temperature cycling was performed in QuantStudio™ 3 (ABI). […]
(Real-time PCR tracks product formation cycle by cycle.)

Series [3] concerns HCT116 cells. Description: MitoTracker flow cytometry of mitochondrial mass in HCT116 cells. The class given is cell-based, human. The following applies: 1 day, via SIRT3 and PKCα. On the procedure: as §1
In series [4] the test system is ATP5A1, SIRT3 and ATP5C1. As to the kind of experiment: Target binding and OXPHOS profile in xenograft tumor lysates. The class given is in vivo, nude mouse. The following applies: day 15. On the procedure: The length and width of a tumor were measured using calipers every third day for 30 days. On day 15 after administration, the mice were euthanized, and the interaction with GRA8, acetylation levels of ATP5A1 or expression of OXPHOS was analyzed (A, lower). The representative images of tumors from mice treated with rATRAM-GRA8-M/AS or mutants on day 15 (right). […] Significant differences (* P<0.05; ** P<0.01; *** P<0.001) were determined by comparison with rVector. Each group included 10 mice. Data represents two independent experiments with similar results],
For immunoprecipitation, cells were obtained, and then lysed in an NP-40 buffer supplemented with a complete protease inhibitor cocktail (Roche). After pre-purification with A/G agarose beads at 4° C. for 1 hour, a whole cell lysate was used for immunoprecipitation with indicated antibodies. Generally, 1 to 4 μg of commercial antibodies were added to 1 ml of the cell lysate, and incubated at 4° C. for 8 to 12 hours. After the addition of the protein A/G agarose beads for 6 hours, the immunoprecipitate was washed with a lysis buffer several times and heated for 5 minutes to be eluted with an SDS loading buffer.
For immunoblotting, polypeptides were subjected to electrophoresis (PAGE) with an SDS-polyacrylamide gel, and then transferred to a PVDF membrane (Bio-Rad) for separation. Immunodetection was performed with a specific antibody. Antibody binding was visualized by chemiluminescence (ECL; Millipore) and detected by a Vilber chemiluminescence analyzer (Fusion SL 3; Vilber Lourmat).

Series [5] can be described thus: Serum cytokine response in tumor-bearing mice. How it is done:
Immunoblotting was performed with anti-PKCα, anti-ATP5A1, anti-SIRT3 or anti-actin. […] (B) The schematic diagram of a xenograft model treated with rVector (upper). HCT116-expressing ATP5A1 WT and mutant cells were subcutaneously injected into the flank of nude mice. […] Each group included 10 mice. […] (C) Humoral immune responses in BALB/C mice. The mice were immunized via each route (intravenous injection or intraperitoneal injection) every third day, and subjected to blood collection on day 40. […] The values are expressed as mean±standard deviation for absorbance (OD) at 450 nm. Each group included five mice. (D) Cytokine response for rATRAM-GRA8-M/AS in tumor-bearing mice. As described in the method section, HCT116 cells were subcutaneously injected into the flank of a BALB/c mouse. A serum cytokine level was measured on day 30 after administration. Each group included 10 mice.
Since immunogenicity is closely related with safety and efficacy, it is one of the critical factors for development of therapeutic proteins. Therefore, by monitoring the production of antibodies against rATRAM-GRA8-M/AS in immunized mice, the immunogenicity of rATRAM-GRA8-M/AS was investigated. After three consecutive injections of rATRAM-GRA8-M/AS, a level of IgG antibody was analyzed using enzyme-linked immunosorbent assay (ELISA).

[6] abbreviates: BALB/c mice, versus negative control.

B1: (GLAGLAGLLGLEGLLGLPLGLLEGLWLGLELEGN)2-GG-ATATTTTTTR-GG-YRFTVQTTQN (protein)
chain: GLAGLAGLLGLEGLLGLPLGLLEGLWLGLELEGNGLAGLAGLLGLEGLLGLPLGLLEGLWLGLELEGNGGATATTTTTTRGGYRFTVQTTQN
modifications: His tag; rATRAM-G8-M/AS
Consider B1, for which, in series [1] (HCT116 cells), the “fold improvement of IC50 compared with rGRA8 (cell death of cancer cell line)” value came to 200 fold. The “IC50 (HCT116 cell death)” value in series [1] (HCT116 cells, MTT (FIG. 4A)) is 0.1 µg/mL. Moreover, the “fold improvement of IC50 compared with rGRA8 (cell death of cancer cell line)” value in series [1] (HCT116 cells, listed as rATRAM-G8-M/AS) was “approximately 200 fold”. The “cell death in HCT116 cells” value in series [1] (dose response, MTT (FIG. 4A)) is “induced cell death in HCT116 cells in a dose-dependent manner”. Moreover, the “mitochondrial DNA content” value in series [2] was “enhanced”. In series [3], the mitochondrial mass entry is “enhanced”. In addition, in series [4], the “ATP5A1 deacetylation level in tumor lysates” value is listed as “increased”; the “binding of rGRA8 to ATP5A1, SIRT3 and ATP5C1 in vivo” value is recorded as “significantly increased”; the “mitochondrial protein biosynthesis level in tumor lysates” value is reported as “increased”. Moreover, in series [5] (setting [6]), the “serum IL-1β level” value was “almost similar to that of the negative control”, the “serum IL-6 level” value was “almost similar to that of the negative control” and the “serum TNF-α level” value is “almost similar to that of the negative control”. For the same molecule, in series [5] (tumor-bearing mice, serum, day 30), the “production of inflammatory cytokines” value is “negligible”.

The values above are taken from patent US11492376B2, “Toxoplasma gondii GRA8-derived recombinant peptides and composition for preventing or treating cancer comprising the same” (Industry—University Cooperation Foundation Hanyang …, priority 2019, dated 2022).
